In patent publication US20190330277A1 (PIRBRIGHT INSTITUTE, published 2019):

Key:
[1] = target: T1, RB94 hu/bov DS-Cav1 Long FdPL; test: ELISA, variant from culture supernatant on Ni-NTA plate;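 note: antigenic evaluation by ELISA of constructs expressed at small scale in 96-well plates after transient plasmid transfection of cells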
T1 construct: also called sc-v20
Procedure: (§1) Initial assessment of all constructs were performed using a 96-well microplate format for high throughput expression followed by an ELISA-based antigenic evaluation as described previously 17. […] Plasmid DNA and TrueFect-Max (United BioSystems, MD) were mixed and added to the growing cells, and the 96-well plate incubated at 37° C., 5% CO2. One day post transfection, enriched medium (high glucose DMEM plus 25% ultra-low IgG fetal bovine serum, 2× nonessential amino acids, 1× glutamine) was added to each well, and the 96-well plate was returned to the incubator for continuous culture.

[2] = target: T2, RB94_sc9-10 DS-CAV1 L373R; test: ELISA, variant from culture supernatant on Ni-NTA plate [continued]
T2 construct: also called sc-v38
Procedure: as §1

KXsb2 = target: T3, KXsb2; test: as above
T3 construct: also called sc-v56
Procedure: as §1

391-2-DS-Cav1-IP-2 = target: T4, 391-2-DS-Cav1-IP-2; test: as above
T4 construct: also called sc-v40
Procedure: as §1

391-2_DS-Cav1-tzsc4 = target: T5, 391-2_DS-Cav1-tzsc4; test: as above
T5 construct: also called sc-v39
Procedure: as §1

[3] = target: T6, 391-2-DS-Cav1-BZGJ9_gyc10; test: as above
T6 construct: also called sc-v60
Procedure: as §1

391-2-DS-Cav1-IP-7 = target: T7, 391-2-DS-Cav1-IP-7; test: as above
T7 construct: also called sc-v46
Procedure: as §1

[4] = target: T8, RB94 DS-CAV1 N70K S104F K117T; test: as above
T8 construct: also called sc-v41
Procedure: as §1

391-2_DS-Cav1-tzsc9 = target: T9, 391-2_DS-Cav1-tzsc9; test: as above
T9 construct: also called sc-v52
Procedure: as §1

391-2-DS-Cav1-BZGJ9_gyc4 = target: T10, 391-2-DS-Cav1-BZGJ9_gyc4; test: as above
T10 construct: also called sc-v53
Procedure: as §1

391-2-DS-Cav1-BZGJ9_gyc6 = target: T11, 391-2-DS-Cav1-BZGJ9_gyc6; test: as above
T11 construct: also called sc-v55
Procedure: as §1

391-2-DS-Cav1-BZGJ9_gyc3 = target: T12, 391-2-DS-Cav1-BZGJ9_gyc3; test: as above
T12 construct: also called sc-v45
Procedure: as §1

Row | Binder | ELISA binding value [1] | ELISA binding value [2] | ELISA binding value (KXsb2) | ELISA binding value (391-2-DS-Cav1-IP-2) | ELISA binding value (391-2_DS-Cav1-tzsc4) | ELISA binding value [3] | ELISA binding value (391-2-DS-Cav1-IP-7) | ELISA binding value [4] | ELISA binding value (391-2_DS-Cav1-tzsc9) | ELISA binding value (391-2-DS-Cav1-BZGJ9_gyc4) | ELISA binding value (391-2-DS-Cav1-BZGJ9_gyc6) | ELISA binding value (391-2-DS-Cav1-BZGJ9_gyc3)
1 | MPE8 antibody (antibody, V domains shown, also called mAb MPE8) VH: EVQLVESGGGLVKPGGSLRLSCAASGFTFSSYSMNWVRQAPGKGLEWVSSISASSSYSDYADSAKGRFTISRDNAKTSLFLQMNSLRAEDTAIYFCARARATGYSSITPYFDIWGQGTLVTVSS VL: QSVVTQTPSVSGAPGQRVTISCTGSSSNIGAGYDVHWYQQLPGTAPKLLIYDNNNRPSGVPDRFSASKSGTSASLAITGLQAEDEADYYCQSYDRNLSGVFGTGTKVTVL | 1.38 | 0.258 | 0.0752 | 0.217 | 0.263 | 0.0498 | 0.0761 | 0.201 | 0.1 | 0.0901 | 0.0866 | 0.123
2 | D25 antibody (antibody, V domains shown, also called mAb D25) VH: QVQLVQSGAEVKKPGSSVMVSCQASGGPLRNYIINWLRQAPGQGPEWMGGIIPVLGTVHYAPKFQGRVTITADESTDTAYIHLISLRSEDTAMYYCATETALVVSTTYLPHYFDNWGQGTLVTVSS VL: DIQMTQSPSSLSAAVGDRVTITCQASQDIVNYLNWYQQKPGKAPKLLIYVASNLETGVPSRFSGSGSGTDFSLTISSLQPEDVATYYCQQYDNLPLTFGGGTKVEIK |  | 0.27 | 0.132 | 0.197 | 0.219 | 0.136 | 0.201 | 0.17 | 0.132 | 0.138 | 0.135 | 0.164
